Laboratory results as given in article PMC10172142.

Experiments:
[1] = target: CPR Wolfebacteria Fe-SodFM1, wild type (CPR Wolfebacteria (uncultured bacterial candidate phyla radiation)); test: SEC; analytical size exclusion chromatography, Superdex 200 10/300 increase, 20 mM Tris pH 7.5, 150 mM NaCl, calibrated with molecular weight standards
[2] = target: CPR Wolfebacteria Fe-SodFM1, wild type (CPR Wolfebacteria (uncultured bacterial candidate phyla radiation)); test: crystal structure; sitting drop vapour diffusion at 20 °C; 100 mM sodium acetate trihydrate pH 4.5, 25% wt/vol polyethylene glycol 3350; data collected at 100 K

stoichiometry N [1]: 2
stoichiometry N [2]: 2
Substance: CPR Wolfebacteria Fe-SodFM1, wild type (enzyme)
